In patent US20230303649A1 (published 2023):
Numbering of substitutions follows the chain as printed. Values belong to the binder of their own block, whether it stands above or below them.

Molecular target: T1, IL-2R on human primary T cells (human, UniProt P01589 22-272; P14784 27-551; P31785 23-369)
T1 sequence (looked up) 1: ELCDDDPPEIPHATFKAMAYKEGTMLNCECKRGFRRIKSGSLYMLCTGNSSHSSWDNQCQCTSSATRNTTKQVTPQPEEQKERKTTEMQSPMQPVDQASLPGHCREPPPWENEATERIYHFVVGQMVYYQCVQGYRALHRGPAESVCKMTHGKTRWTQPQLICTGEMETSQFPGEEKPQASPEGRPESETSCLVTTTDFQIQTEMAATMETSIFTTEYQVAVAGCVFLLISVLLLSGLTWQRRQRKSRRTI
T1 sequence (looked up) 2: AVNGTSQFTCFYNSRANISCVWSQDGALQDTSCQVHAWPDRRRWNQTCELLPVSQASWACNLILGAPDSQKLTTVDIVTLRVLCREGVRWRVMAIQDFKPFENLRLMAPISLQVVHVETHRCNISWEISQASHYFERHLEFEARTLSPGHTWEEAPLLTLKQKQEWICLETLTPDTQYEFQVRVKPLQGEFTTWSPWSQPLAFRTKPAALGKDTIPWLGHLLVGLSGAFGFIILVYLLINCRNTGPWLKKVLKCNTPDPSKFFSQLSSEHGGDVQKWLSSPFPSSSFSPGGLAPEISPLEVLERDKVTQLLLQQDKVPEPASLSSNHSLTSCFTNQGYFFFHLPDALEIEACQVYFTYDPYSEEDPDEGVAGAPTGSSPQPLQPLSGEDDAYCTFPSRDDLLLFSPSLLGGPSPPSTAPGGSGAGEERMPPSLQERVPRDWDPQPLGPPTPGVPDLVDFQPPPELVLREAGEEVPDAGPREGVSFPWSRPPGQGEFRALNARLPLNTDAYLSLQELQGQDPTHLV
T1 sequence (looked up) 3: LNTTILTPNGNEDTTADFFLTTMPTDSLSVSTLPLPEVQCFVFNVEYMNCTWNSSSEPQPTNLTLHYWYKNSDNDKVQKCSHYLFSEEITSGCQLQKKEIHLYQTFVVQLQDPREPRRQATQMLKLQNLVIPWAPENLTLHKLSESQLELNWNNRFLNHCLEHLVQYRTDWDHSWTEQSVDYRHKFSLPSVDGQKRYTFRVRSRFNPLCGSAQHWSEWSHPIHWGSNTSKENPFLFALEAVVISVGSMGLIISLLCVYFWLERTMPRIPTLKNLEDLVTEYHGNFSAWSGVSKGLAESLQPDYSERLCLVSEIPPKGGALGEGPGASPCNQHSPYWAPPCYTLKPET
Assay: cell-based or functional assay

B1: SEQ ID NO 25 (ligand)
chain: APTSSSTKKTQLQLEHLLLDLQMILNGINNHKNPRLTRMLTFKFYMPKKATELKHLQCLEEELKPLEEALRLAPSKNFHLRPRDLISNINVIVLELKGSETTFMCEYADETATIVEFLNRWITFSTSIISTLT
CD4 conv EC50 (nM), STAT5 phosphorylation: 2290 nM
CD8 EC50 (nM), STAT5 phosphorylation: 10000 nM
CD8 naïve EC50 (nM), STAT5 phosphorylation: 10000 nM
Treg EC50 (nM), STAT5 phosphorylation: 0.43 nM

B7: SEQ ID NO 26 (ligand)
chain: B1 chain with A69V, N88D, T126Q
CD4 conv EC50 (nM), STAT5 phosphorylation: 2640 nM
CD8 EC50 (nM), STAT5 phosphorylation: 4270 nM
CD8 naïve EC50 (nM), STAT5 phosphorylation: 4270 nM
Treg EC50 (nM), STAT5 phosphorylation: 0.67 nM

B9: SEQ ID NO 27 (ligand)
chain: B1 chain with A69V
CD4 conv EC50 (nM), STAT5 phosphorylation: 4000 nM
CD8 EC50 (nM), STAT5 phosphorylation: 10000 nM
CD8 naïve EC50 (nM), STAT5 phosphorylation: 10000 nM
Treg EC50 (nM), STAT5 phosphorylation: 5.94 nM

B10: SEQ ID NO 10 (ligand)
chain: B1 chain with N29S, T37A, K48E, N88D, I89V
CD8 EC50 (nM), STAT5 phosphorylation: 650 nM
Treg EC50 (nM), STAT5 phosphorylation: 2.55 nM

Further lines, results first:

CD4 conv EC50 (nM), STAT5 phosphorylation: 1000 nM
CD8 EC50 (nM), STAT5 phosphorylation: 4000 nM
CD8 naïve EC50 (nM), STAT5 phosphorylation: 4000 nM
Treg EC50 (nM), STAT5 phosphorylation: 1.02 nM
B2: SEQ ID NO 28 (ligand)
chain: B1 chain with A69V, R71N, N88D, T126Q

CD4 conv EC50 (nM), STAT5 phosphorylation: 7000 nM
CD8 EC50 (nM), STAT5 phosphorylation: 10000 nM
CD8 naïve EC50 (nM), STAT5 phosphorylation: 10000 nM
Treg EC50 (nM), STAT5 phosphorylation: 94.9 nM
B3: SEQ ID NO 32 (ligand)
chain: B1 chain with H31Y, R35K, R71N, P74Q, N88D, T126Q

CD4 conv EC50 (nM), STAT5 phosphorylation: 7000 nM
CD8 EC50 (nM), STAT5 phosphorylation: 10000 nM
CD8 naïve EC50 (nM), STAT5 phosphorylation: 10000 nM
Treg EC50 (nM), STAT5 phosphorylation: 17 nM
B4: SEQ ID NO 31 (ligand)
chain: B1 chain with H31Y, R35K, R71N, N88D, T126Q

CD4 conv EC50 (nM), STAT5 phosphorylation: 7000 nM
CD8 EC50 (nM), STAT5 phosphorylation: 10000 nM
CD8 naïve EC50 (nM), STAT5 phosphorylation: 10000 nM
Treg EC50 (nM), STAT5 phosphorylation: 10.7 nM
B5: SEQ ID NO 30 (ligand)
chain: B1 chain with R35K, R71N, N88D, T126Q

CD4 conv EC50 (nM), STAT5 phosphorylation: 4000 nM
CD8 EC50 (nM), STAT5 phosphorylation: 1000 nM
CD8 naïve EC50 (nM), STAT5 phosphorylation: 1000 nM
Treg EC50 (nM), STAT5 phosphorylation: 2.53 nM
B6: SEQ ID NO 33 (ligand)
chain: B1 chain with H31Y, R35K, A69V, R71N, N88D, T126Q

CD4 conv EC50 (nM), STAT5 phosphorylation: 2290 nM
CD8 EC50 (nM), STAT5 phosphorylation: 10000 nM
CD8 naïve EC50 (nM), STAT5 phosphorylation: 10000 nM
Treg EC50 (nM), STAT5 phosphorylation: 9.32 nM
B8: SEQ ID NO 29 (ligand)
chain: B1 chain with A69V, R71N
